Data from paper PMC8386461.

What was measured:
Assay in all cases: SPR
[1] = target: Glycosylated human basigin (BSG-2, mammalian cell-expressed) (human)
[2] = target: Nonglycosylated human basigin ectodomain (BSG-2, E. coli-expressed) (human)
[3] = target: Human IgG1 CR3022 antibody (human)
Human IgG1 CR3022 antibody (human), sequence (heavy, as listed by the source, chain 1 of 2): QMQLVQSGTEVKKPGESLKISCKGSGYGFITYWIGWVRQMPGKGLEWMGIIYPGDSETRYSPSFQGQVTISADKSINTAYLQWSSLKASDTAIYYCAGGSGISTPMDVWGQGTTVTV
Human IgG1 CR3022 antibody (human), sequence (light, as listed by the source, chain 2 of 2): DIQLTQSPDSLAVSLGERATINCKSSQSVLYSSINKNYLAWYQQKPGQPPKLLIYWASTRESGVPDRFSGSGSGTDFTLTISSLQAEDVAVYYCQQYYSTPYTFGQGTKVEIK

Substance | Kd [1] | Kd [2] | Kd [3]
Plasmodium falciparum reticulocyte-binding protein homolog 5 (recombinant RH5) (from UniProt Q8IFM5 26-526) (ligand) | 665 nM | 925 nM | 
SARS-CoV-2 spike receptor binding domain (from UniProt P0DTC2 319-541) (domain or fragment) |  |  | 190 nM
